Patent publication US9383360B2, “Compositions and methods relating to lyme disease” (The United States of America, as represented by the …, priority 2012, dated 2016)

What was measured:
[1] = biological target: T1, Aggrecan (Bos taurus, UniProt P13608); assay: BbHtrA proteolysis assay, aggrecan substrate; type: biochemical, bovine, human; conditions: native bovine aggrecan, SDS-PAGE, FIG. 4B
T1 construct: recombinant human aggrecan (G1-IGD-G2 domains)
Procedure: (§1) For proteolysis assays described in Examples herein, purified protein substrates (200-600 nM) and proteases (100-150 nM) were diluted in assay buffer (50 mM HEPES, pH 7.4, 5 mM CaCl2) and incubated overnight at 37° C. Samples were boiled for 4 minutes to inactivate the proteases. Proteoglycans were deglycosylated by overnight incubation at 37° C. with 0.01 U chondroitinase ABC (Seikagaku). Reactions were stopped by the addition of SDS/PAGE sample buffer, boiled for 4 minutes, and electrophoresed on pre-cast Tris-glycine gels (BioRad). Reaction products were visualized by silver staining.
(§2) BbHtrA cleaved recombinant human aggrecan (G1-IGD-G2 domains) within the IGD (FIG. 4A). Cleavage of recombinant aggrecan generated three high molecular weight proteolytic fragments which migrated at ˜110 kd, ˜60 kd and ˜50 kd.
(§3) BbHtrA also degraded native, fully glycosylated aggrecan (FIG. 4B, lane 5). Again, this degradation required BbHtrA catalytic activity (FIG. 4B, lane 6). The BbHtrA-generated aggrecan fragments appear to be a doublet, unlike those generated by HtrA1.
(§4) Purified proteins were incubated with BbHtrA or BbHtrA^S226A as described herein. HtrA (also known as DegP) proteases belong to the family of serine proteases which contain a highly reactive serine residue in their active site. This serine (Ser210 in DegP) is part of the canonical His-Ser-Asp catalytic triad and mutation of the catalytic serine abolishes proteolytic activity (Skorko-Glonek et al., 1995). In BbHtrA, residues His119, Ser226 and Asp149 form the catalytic triad and mutation of serine 226 to alanine abolished proteolytic activity as expected (FIG. 5).
(§5) Reaction products were separated by SDS-PAGE and silver stained. Native collagen II and recombinant tenascin C were not degraded by BbHtrA indicating selectivity for proteoglycans, E-cadherin and fibronectin. FIG. 5 is an image of SDS-PAGE analysis showing that BbHtrA degrades aggrecan, neurocan, versican, brevican, biglycan, decorin, E-cadherin, and casein.

[2] = tested on: Aggrecan; assay: BbHtrA proteolysis assay, aggrecan substrate; type: biochemical, bovine, human; conditions: SDS-PAGE
Procedure: as §1, §2, §3, §4, §5

[3] = biological target: Neurocan (Homo sapiens, UniProt O14594); assay: BbHtrA proteolysis assay, neurocan substrate; type: biochemical; conditions: SDS-PAGE, FIG. 5
Procedure: as §1, §4
(§6) Reaction products were separated by SDS-PAGE and silver stained. Native collagen II and recombinant tenascin C were not degraded by BbHtrA indicating selectivity for proteoglycans, E-cadherin and fibronectin. […]

[4] = biological target: T2, Collagen type II (Homo sapiens, UniProt P02458); assay: BbHtrA proteolysis assay, collagen type II substrate; type: biochemical; conditions: SDS-PAGE, silver stain
T2 construct: Native collagen II and recombinant tenascin C were not degraded by BbHtrA; from tissue
Procedure: as §1, §4, §6

[5] = tested on: Decorin; assay: BbHtrA proteolysis assay, decorin substrate; type: biochemical, bovine, human; conditions: SDS-PAGE, FIG. 5
Procedure: as §1, §4, §6

[6] = biological target: T3, β-casein (Bos taurus, UniProt P02666); assay: β-casein zymography; type: biochemical; conditions: 1 μg recombinant protein, 12% β-casein zymogram gel, developed 40 h at 37° C., FIG. 12A
T3 construct: purchased Bio-Rad
T3 sequence (P02666 16-224): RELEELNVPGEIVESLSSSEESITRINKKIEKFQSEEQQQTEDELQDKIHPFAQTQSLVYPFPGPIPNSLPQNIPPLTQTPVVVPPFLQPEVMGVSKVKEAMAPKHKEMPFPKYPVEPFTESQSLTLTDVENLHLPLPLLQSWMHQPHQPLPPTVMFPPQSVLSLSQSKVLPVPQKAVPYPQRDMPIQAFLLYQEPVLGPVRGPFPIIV
Procedure: Proteolytic activity was studied by zymography of lysates of the prototype strains of each of the major genospecies of Borrelia that cause Lyme disease. Borrelia burgdorferi (passage 4, non-clonal, infectious strain B31), Borrelia garinii (unknown passage, infectious strain FR-20047) and Borrelia afzelii (unknown passage, infectious strain ACA-1) were grown in Barbour-Stoenner-Kelly media (BSK II) supplemented with 6% rabbit serum at 37° C. Borrelial lysates (˜1×10^8 B. garinii, B. afzelii; ˜5×10^7 B. burgdorferi) and recombinant BbHtrA proteins (1 μg) were subjected to SDS-PAGE electrophoresis using 12% β-casein Zymogram Ready Gels (Bio-Rad). Following electrophoresis, the gels were renatured in 2.5% Triton X-100 (Sigma) for 60 min at 37° C. with a buffer change at 15 min. The gels were developed in Zymogram Development Buffer (BioRad) for 40 h at 37° C. with a buffer change at 15 min. Gels were stained (0.5% Coomassie Brilliant Blue R-250, 40% methanol, 10% glacial acetic acid) for 60 min at room temperature and then destained (40% methanol, 10% glacial acetic acid).

[7] = biological target: Tenascin C (Homo sapiens, UniProt P24821); assay: BbHtrA proteolysis assay, tenascin C substrate; type: biochemical; conditions: SDS-PAGE, silver stain
Procedure: as §1, §4, §6

[8] = tested on: Biglycan; assay: BbHtrA proteolysis assay, biglycan substrate; type: biochemical, bovine, human; conditions: SDS-PAGE, FIG. 5
Procedure: as §1, §4, §6

[9] = tested on: Plasma fibronectin; assay: BbHtrA proteolysis assay, plasma fibronectin substrate; type: biochemical, human; conditions: incubated overnight or 96 hours, SDS-PAGE, FIG. 8A
Procedure: as §1
BbHtrA generates pro-inflammatory amino terminal (Fnf-29) and carboxyl terminal (FnIII13-14) fibronectin fragments. […] Fibronectin was incubated with BbHtrA overnight (FIG. 8A, lane 1) or for 96 hours (FIG. 8A, lane 3). Reaction products were separated electrophoretically, and the bands were excised and analyzed by tandem LC MS/MS, FIG. 8B.

Tenascin C, sequence (P24821 23-2201): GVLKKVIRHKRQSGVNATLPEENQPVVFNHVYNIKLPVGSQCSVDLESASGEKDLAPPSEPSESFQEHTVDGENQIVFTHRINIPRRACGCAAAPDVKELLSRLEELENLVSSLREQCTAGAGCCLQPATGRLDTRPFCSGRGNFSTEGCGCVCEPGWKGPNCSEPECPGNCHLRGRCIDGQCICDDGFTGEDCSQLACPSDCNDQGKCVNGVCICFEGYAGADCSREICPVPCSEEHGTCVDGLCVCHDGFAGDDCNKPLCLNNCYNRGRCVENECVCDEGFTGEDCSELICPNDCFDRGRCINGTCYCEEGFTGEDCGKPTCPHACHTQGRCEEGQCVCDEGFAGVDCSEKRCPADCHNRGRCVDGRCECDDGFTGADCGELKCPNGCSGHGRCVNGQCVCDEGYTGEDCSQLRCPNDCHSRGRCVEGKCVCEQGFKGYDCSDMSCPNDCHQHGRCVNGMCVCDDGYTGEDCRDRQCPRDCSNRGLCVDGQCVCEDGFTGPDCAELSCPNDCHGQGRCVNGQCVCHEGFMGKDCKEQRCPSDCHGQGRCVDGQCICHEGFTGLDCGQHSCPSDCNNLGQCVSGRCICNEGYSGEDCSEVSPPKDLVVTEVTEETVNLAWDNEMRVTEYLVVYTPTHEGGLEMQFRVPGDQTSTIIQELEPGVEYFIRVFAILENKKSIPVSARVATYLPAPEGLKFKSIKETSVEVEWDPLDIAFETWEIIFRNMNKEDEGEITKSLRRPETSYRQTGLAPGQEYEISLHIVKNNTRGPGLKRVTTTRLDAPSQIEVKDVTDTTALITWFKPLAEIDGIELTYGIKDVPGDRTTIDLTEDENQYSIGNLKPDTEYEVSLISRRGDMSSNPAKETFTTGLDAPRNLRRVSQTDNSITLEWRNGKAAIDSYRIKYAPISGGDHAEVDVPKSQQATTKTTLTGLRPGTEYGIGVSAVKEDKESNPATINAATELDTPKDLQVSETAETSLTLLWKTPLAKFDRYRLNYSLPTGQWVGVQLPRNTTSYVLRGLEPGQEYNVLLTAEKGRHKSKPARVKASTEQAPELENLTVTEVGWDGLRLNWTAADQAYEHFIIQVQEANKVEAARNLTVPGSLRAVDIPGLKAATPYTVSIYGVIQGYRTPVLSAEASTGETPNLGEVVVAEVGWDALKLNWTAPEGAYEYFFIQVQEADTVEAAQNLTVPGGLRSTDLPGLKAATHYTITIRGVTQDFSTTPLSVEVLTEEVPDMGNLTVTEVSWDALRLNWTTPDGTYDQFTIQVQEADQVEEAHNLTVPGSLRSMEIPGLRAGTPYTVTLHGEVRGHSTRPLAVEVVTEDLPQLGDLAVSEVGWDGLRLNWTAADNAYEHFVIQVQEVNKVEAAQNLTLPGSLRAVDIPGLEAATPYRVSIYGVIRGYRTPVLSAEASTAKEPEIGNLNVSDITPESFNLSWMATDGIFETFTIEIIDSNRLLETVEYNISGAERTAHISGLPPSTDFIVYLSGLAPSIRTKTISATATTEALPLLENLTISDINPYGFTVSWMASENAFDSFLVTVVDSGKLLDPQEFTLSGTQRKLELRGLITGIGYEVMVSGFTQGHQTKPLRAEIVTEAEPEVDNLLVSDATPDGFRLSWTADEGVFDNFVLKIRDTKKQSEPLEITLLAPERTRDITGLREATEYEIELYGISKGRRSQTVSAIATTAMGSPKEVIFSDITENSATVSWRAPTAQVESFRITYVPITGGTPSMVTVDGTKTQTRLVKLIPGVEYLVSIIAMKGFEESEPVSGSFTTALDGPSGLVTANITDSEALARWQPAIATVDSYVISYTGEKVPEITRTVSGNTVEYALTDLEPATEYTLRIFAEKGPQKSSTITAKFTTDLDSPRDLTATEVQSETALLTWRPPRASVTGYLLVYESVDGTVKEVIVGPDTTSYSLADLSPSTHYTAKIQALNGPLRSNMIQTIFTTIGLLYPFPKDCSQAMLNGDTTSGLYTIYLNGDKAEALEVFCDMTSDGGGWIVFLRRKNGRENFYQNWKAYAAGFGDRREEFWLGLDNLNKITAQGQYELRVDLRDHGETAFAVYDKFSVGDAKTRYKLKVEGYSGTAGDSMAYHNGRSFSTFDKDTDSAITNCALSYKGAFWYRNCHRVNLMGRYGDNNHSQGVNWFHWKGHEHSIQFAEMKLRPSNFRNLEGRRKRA
T2 sequence (P02458 182-1241 limits assumed): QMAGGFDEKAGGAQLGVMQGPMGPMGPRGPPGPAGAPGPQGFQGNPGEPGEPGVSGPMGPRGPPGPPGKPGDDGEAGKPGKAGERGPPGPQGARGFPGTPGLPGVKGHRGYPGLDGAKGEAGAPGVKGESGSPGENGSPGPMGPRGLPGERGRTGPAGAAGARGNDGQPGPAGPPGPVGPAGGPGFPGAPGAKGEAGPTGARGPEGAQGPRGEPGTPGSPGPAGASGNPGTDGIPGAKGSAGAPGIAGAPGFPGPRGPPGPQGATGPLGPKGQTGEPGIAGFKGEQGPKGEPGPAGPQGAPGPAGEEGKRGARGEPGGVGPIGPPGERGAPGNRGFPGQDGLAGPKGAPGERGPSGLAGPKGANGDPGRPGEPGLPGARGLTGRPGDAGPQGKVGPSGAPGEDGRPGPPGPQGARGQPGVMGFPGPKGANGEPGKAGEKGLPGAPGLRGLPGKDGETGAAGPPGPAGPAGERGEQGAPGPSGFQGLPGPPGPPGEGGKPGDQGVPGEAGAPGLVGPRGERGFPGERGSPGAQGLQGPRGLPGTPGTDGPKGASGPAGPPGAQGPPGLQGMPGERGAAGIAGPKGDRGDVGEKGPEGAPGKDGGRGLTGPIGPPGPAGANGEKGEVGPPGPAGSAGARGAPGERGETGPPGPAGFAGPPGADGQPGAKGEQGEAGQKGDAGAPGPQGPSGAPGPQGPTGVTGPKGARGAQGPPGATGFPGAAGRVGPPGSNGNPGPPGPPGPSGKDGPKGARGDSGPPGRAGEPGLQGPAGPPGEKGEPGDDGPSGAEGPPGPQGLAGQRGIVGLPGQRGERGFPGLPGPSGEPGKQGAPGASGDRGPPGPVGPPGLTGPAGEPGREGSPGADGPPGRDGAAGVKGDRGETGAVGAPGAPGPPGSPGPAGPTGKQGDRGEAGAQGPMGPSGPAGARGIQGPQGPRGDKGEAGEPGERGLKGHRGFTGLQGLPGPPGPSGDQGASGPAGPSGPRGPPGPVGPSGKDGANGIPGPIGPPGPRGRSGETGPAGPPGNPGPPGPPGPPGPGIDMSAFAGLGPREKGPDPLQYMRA
Neurocan, sequence (O14594 23-1321): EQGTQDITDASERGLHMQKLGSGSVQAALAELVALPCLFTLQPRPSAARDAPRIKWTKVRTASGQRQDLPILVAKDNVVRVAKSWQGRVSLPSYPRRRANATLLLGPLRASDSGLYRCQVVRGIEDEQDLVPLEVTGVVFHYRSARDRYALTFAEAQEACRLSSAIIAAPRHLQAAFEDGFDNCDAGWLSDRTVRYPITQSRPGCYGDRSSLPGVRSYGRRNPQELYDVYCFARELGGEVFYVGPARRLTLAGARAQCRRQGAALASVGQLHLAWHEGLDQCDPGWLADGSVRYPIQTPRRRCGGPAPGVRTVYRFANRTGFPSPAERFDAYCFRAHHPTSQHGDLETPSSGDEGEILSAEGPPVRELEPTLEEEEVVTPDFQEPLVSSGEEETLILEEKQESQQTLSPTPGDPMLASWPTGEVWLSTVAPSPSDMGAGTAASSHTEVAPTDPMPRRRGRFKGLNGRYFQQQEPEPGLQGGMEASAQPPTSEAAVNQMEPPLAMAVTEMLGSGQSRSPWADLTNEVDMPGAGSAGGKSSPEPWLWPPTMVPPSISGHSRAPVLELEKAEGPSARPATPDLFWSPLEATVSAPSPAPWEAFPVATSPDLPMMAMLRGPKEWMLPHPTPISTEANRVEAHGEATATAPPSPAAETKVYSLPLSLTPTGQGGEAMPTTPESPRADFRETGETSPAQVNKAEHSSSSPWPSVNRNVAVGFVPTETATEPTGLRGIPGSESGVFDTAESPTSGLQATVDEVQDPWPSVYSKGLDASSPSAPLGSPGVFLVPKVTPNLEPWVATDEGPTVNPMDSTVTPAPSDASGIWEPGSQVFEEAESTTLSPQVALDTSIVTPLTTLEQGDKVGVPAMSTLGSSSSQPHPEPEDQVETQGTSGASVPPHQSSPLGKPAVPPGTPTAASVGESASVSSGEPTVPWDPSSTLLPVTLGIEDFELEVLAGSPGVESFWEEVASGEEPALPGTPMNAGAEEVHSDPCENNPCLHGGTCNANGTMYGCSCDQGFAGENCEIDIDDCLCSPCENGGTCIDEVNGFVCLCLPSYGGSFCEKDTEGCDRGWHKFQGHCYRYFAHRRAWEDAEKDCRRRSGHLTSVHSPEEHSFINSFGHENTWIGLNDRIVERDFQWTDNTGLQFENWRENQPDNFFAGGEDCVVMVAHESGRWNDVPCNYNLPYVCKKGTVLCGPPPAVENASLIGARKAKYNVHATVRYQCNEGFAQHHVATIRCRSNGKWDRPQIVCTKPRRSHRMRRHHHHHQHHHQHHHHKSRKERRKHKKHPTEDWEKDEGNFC

B1: BbHtrA: Recombinant wild type B. burgdorferi HtrA serine protease, mature protein amino acids 38-474, expressed in E. coli (SEQ ID NO:1, 9) (protein, listed as Borrelia burgdorferi)
chain: EEKDNTVRALQDSFREVSKKILPSSVEVHATGVIKQSFPIPFFFFDMPEFDSERKSNWAGSGVIIGRDSQKKSLFYVVTNSHVVDKATELEVVSYDKKKHKAKLIGKDEKKDIALISFESDDATIKVADLGDSDKLEIGDWVMAVGSPFQFSFTVTAGIVSGLQRSANPNLQSRNLFIQTDAAINRGNSGGPLVNIKGEVIGINAWIASNSGGNIGLGFAIPVNNIKSTVDFFLKGKKIESAWLGISFYPLKTRDSEVLKSLGVESNDVSAAIIASLYPGSPAVKSGLRAGDIIMKVNGVSMSVFQDVTSYISDFYAGEKVNVEILRGNVKKNIEIVLAVRPKDKELSSSKMLPGFVVYPLVEDIKAQLNLRNWIKGVVVDYIDKNLASNIKMKSGDVILSVNSKSVSNLREFYDALEVGKNTYKILRGNDSFKITF
**Q.** Which “Degradation of native, fully glycosylated aggrecan” value [1] does the source give for B1 here?
**A.** The value was “degraded”.

**Q.** And the Degradation of aggrecan ([2]; FIG. 5)?
**A.** Its Degradation of aggrecan is “degrades”.

**Q.** And the “Cleavage of recombinant human aggrecan (G1-IGD-G2 domains) within the IGD” value ([2]; silver stain, FIG. 4A)?
**A.** Its value is “cleaved”.

**Q.** What about the Degradation of neurocan [3] of the same molecule?
**A.** The Degradation of neurocan was “degrades”.

**Q.** And the “Degradation of native collagen II” value [4]?
**A.** Its value is “not degraded”.

**Q.** What about the Degradation of decorin [5] of the same molecule?
**A.** Its Degradation of decorin is “degrades”.

**Q.** And the “Proteolytic activity against β-casein (clearing around the protein band)” value [6]?
**A.** The value was “proteolytically active”.

**Q.** What about the “Degradation of recombinant tenascin C” value [7] of the same molecule?
**A.** Its value is “not degraded”.

**Q.** What about the Degradation of biglycan [8] of the same molecule?
**A.** The Degradation of biglycan was “degrades”.

**Q.** And the Degradation of fibronectin [9]?
**A.** The Degradation of fibronectin was “yielded distinct product bands”.
